The data set deals with K4 kissing-loop RNA reporter. Put plainly: apparent KD of K4 kissing-loop reporter; higher = weaker reporter binding. Conditions: Eterna round: R107. The method, then: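 RNA-MaP round R107: designed RNA switches with theophylline, tryptophan, arginine or FMN aptamers are transcribed on-chip within common flanks. They are titrated with a labelled K4 kissing-loop RNA reporter in RNA-MaP buffer (100 mM Tris pH 7.5, 80 mM KCl, 4 mM MgCl2), without ligand or with the indicated ligand. Median apparent KD per design.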

The mark [1] stands for this setting: input ligand: theophylline 20 uM.
The mark [2] stands for this setting: input ligand: tryptophan 2.4 mM.
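Further: bound reporter read as fluorescence of individual clusters on recovered sequencing chips by microscopy, with normalized cluster intensities fitted with a binding model.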

For the sequence “GGGAUGUAGUGAUGUUAUAUUAGAUGUAGACGAGGACCGGUACGGCCGCCACUCGUGAUGGCUGCUAGCACGUUUCGAUGUUUGC [ExTryptoA.Cr]”, the “apparent KD of K4 kissing-loop reporter” value (input ligand: FMN 200 uM) was found to be 399 nM; the “apparent KD of K4 kissing-loop reporter” value (input ligand: arginine 13.2 mM) amounted to 426 nM; the “apparent KD of K4 kissing-loop reporter” value (input ligand: none) amounted to 428 nM; the “apparent KD of K4 kissing-loop reporter” value under setting [1] amounted to 462 nM; the “apparent KD of K4 kissing-loop reporter” value under setting [2] stood at 309 nM.

For the sequence “GGGCGUGGCGCGGCCGCCACUGGGCCUGGGUGCUCGCUGAGUGAUGUUCGUCGGCGGUUGGGUCGUAGGACCGGGUGCUGGUUGG [BDazzled - #9 SS Tryptophan B]”, the “apparent KD of K4 kissing-loop reporter” value by setting is: (input ligand: FMN 200 uM) 771 nM; (input ligand: arginine 13.2 mM) 347 nM; (input ligand: none) 607 nM; under setting [1], 447 nM; under setting [2], 575 nM.

With “GGUAGCAUGGCGGCCGCCACUAAAACUGGAUCGGAAACGAUCCAGUAAUUUCGAGUGAUGUUCGUUAGGACCGGGCCAUGCUACC”, the “apparent KD of K4 kissing-loop reporter” value by setting is: (input ligand: FMN 200 uM) 362 nM; (input ligand: arginine 13.2 mM) 254 nM; (input ligand: none) 283 nM; under setting [1], 257 nM; under setting [2], 236 nM.

Take “GGUAGCAUGGCGGCCGCCACUCAUGUAGAUACCUACAUAGUAAGCAGUGAUGUUGCUUUGUGGUUGAGGACCGGGCCAUGCUACC”: the “apparent KD of K4 kissing-loop reporter” value (input ligand: FMN 200 uM) was 167 nM; the “apparent KD of K4 kissing-loop reporter” value (input ligand: arginine 13.2 mM) was 140 nM; the “apparent KD of K4 kissing-loop reporter” value (input ligand: none) was 151 nM; the “apparent KD of K4 kissing-loop reporter” value under setting [1] was 161 nM; the “apparent KD of K4 kissing-loop reporter” value under setting [2] came to 255 nM.

Consider “GGUAGCUAGGCAGGAUAUAGCUAGUGGAGUGAUGUUCCACCAUACACGAGUGAUGUUCGUAACCUGCUAGAAGGGCCUAGCUACC”, for which the “apparent KD of K4 kissing-loop reporter” value (input ligand: FMN 200 uM) came to 114 nM; the “apparent KD of K4 kissing-loop reporter” value (input ligand: arginine 13.2 mM) was 125 nM; the “apparent KD of K4 kissing-loop reporter” value (input ligand: none) is 144 nM; the “apparent KD of K4 kissing-loop reporter” value under setting [1] stood at 135 nM; the “apparent KD of K4 kissing-loop reporter” value under setting [2] came out at 138 nM.

Take “GGUCGAGUGAUGUUCGAUGUUAUGCAUUCAGAGGAUAUAGGAUUAGCUAGAAGGCUGAAUCAAUCUUCGAGUGAUGUUCGAGGAU [Same State FMN A GF 9]”: the “apparent KD of K4 kissing-loop reporter” value runs as follows: (input ligand: FMN 200 uM) 133 nM; (input ligand: arginine 13.2 mM) 108 nM; (input ligand: none) 115 nM; under setting [1], 123 nM; under setting [2], 112 nM.

Take “GGUGUGCCAAGUGAUGUUUGGCGUUCUCACCGAGGACCGGUACGGCCGCCACUCGUUAACUGACCAAGUAUCUUUACCUCGGAGA [theeternabot_sameState_KL_Trp_A_8]”: the “apparent KD of K4 kissing-loop reporter” value (input ligand: FMN 200 uM) turned out to be 168 nM; the “apparent KD of K4 kissing-loop reporter” value (input ligand: arginine 13.2 mM) came to 141 nM; the “apparent KD of K4 kissing-loop reporter” value (input ligand: none) was 159 nM; the “apparent KD of K4 kissing-loop reporter” value under setting [1] amounted to 187 nM; the “apparent KD of K4 kissing-loop reporter” value under setting [2] worked out at 156 nM.

“GGUGUUGUUUGUGCCGCCUUCCUCGUUCCUCGAGGACCGGUACGGCCGCCACUCGAGUGAUGUUUGGGUAGCGAUCCCUGCUAGU [Bdazzled - #12 Exc. Tryptophan A]”: the “apparent KD of K4 kissing-loop reporter” value by setting is: (input ligand: FMN 200 uM) 877 nM; (input ligand: arginine 13.2 mM) 696 nM; (input ligand: none) 1000 nM; under setting [1], 822 nM; under setting [2], 892 nM.

Take “GGUUCCUCAGUGAUGUUGAGGUGACCUCGGCAGGAUAUAGGCAUUACUAGAAGGGCCAAAAGAACCCUGUGUAGCGACACAGGGA [Beerma]”: the “apparent KD of K4 kissing-loop reporter” value reads like this: (input ligand: FMN 200 uM) 150 nM; (input ligand: arginine 13.2 mM) 269 nM; (input ligand: none) 329 nM; under setting [1], 279 nM; under setting [2], 299 nM.

Turning to “GGUUCUCUGUUAGGAUAUAGAUUAGAGUGAUGUUCUAACGGCCCGGGCCCGAAAGGGCCCGGGCCGCUAGAAGGAACGGAGUUGG [#2 Same State - FMN A Attempt #1 (HarryS)]”, the “apparent KD of K4 kissing-loop reporter” value came to 399 nM (input ligand: FMN 200 uM); 149 nM (input ligand: arginine 13.2 mM); 1100 nM (input ligand: none); 538 nM under setting [1]; 444 nM under setting [2].

“GUACACUCUCGAGUGAUGUUCGGUAAUAGAGAGGAUAUCGCUUUUGCGAGAAGGCUCUGAAUGAGGAAACUCGUUCUGUGUGUAC [FMN A 20]”: the “apparent KD of K4 kissing-loop reporter” value (input ligand: FMN 200 uM) was found to be 906 nM; the “apparent KD of K4 kissing-loop reporter” value (input ligand: arginine 13.2 mM) was 686 nM; the “apparent KD of K4 kissing-loop reporter” value (input ligand: none) was found to be 1160 nM; the “apparent KD of K4 kissing-loop reporter” value under setting [1] turned out to be 858 nM; the “apparent KD of K4 kissing-loop reporter” value under setting [2] was 894 nM.

As to “GUACGCUGCUGAGUGAUGUUCAGCAAUCGCUAGGAUAUCGCUUUUGCGAGAAGGAGCGCAAUGAGGAAACUCGUUGUUAGUGUAC [FMN A 28]”, the “apparent KD of K4 kissing-loop reporter” value (input ligand: FMN 200 uM) was found to be 166 nM; the “apparent KD of K4 kissing-loop reporter” value (input ligand: arginine 13.2 mM) turned out to be 198 nM; the “apparent KD of K4 kissing-loop reporter” value (input ligand: none) amounted to 255 nM; the “apparent KD of K4 kissing-loop reporter” value under setting [1] worked out at 204 nM; the “apparent KD of K4 kissing-loop reporter” value under setting [2] worked out at 207 nM.

Regarding “GUAGACGUGCCUUCAGUGAUGUUGAAGGAUACCAGAUGUUACCACAUCCCUUGGCAGCCUUGGGAUAACAGUGAGUCGGUAUAUG [Ontierso]”, the “apparent KD of K4 kissing-loop reporter” value (input ligand: FMN 200 uM) came to 255 nM; the “apparent KD of K4 kissing-loop reporter” value (input ligand: arginine 13.2 mM) was 200 nM; the “apparent KD of K4 kissing-loop reporter” value (input ligand: none) was found to be 297 nM; the “apparent KD of K4 kissing-loop reporter” value under setting [1] is 253 nM; the “apparent KD of K4 kissing-loop reporter” value under setting [2] came to 247 nM.

For the sequence “GUAGCACAGUCGGCCGCCACUGUCGGUUCUCCAGUGAUGUUGGAGUUAGUUCGUCGCAGUUCAAACAGGACCGGGACCAUUCCUU [theeternabot_exclusion_KL_Trp_B_26]”, the “apparent KD of K4 kissing-loop reporter” value reads like this: (input ligand: FMN 200 uM) 125 nM; (input ligand: arginine 13.2 mM) 135 nM; (input ligand: none) 127 nM; under setting [1], 132 nM; under setting [2], 121 nM.

For “GUAUAAAUAUAAGGAUAUGCAGGGAAAGUAAGAAUGGGUUAGUUGAACUUUAGUGAUGUUGAGGAAGCAGAAGGUGUAUAUGUGU [FMN B same state]”, the “apparent KD of K4 kissing-loop reporter” value came to 650 nM (input ligand: FMN 200 uM); 272 nM (input ligand: arginine 13.2 mM); 381 nM (input ligand: none); 322 nM under setting [1]; 319 nM under setting [2].

In the case of “GUAUCGCUAGGAGGAUAUUUCAUAUAACAUAUAAAUGGAUAUGCGGAGUGAUGUUCCGAUUUACGGAAAGAAGGCCUAGUGAUAC [FMN B 19]”, the “apparent KD of K4 kissing-loop reporter” value was determined as 119 nM (input ligand: FMN 200 uM); 172 nM (input ligand: arginine 13.2 mM); 192 nM (input ligand: none); 207 nM under setting [1]; 172 nM under setting [2].

Turning to “GUAUUGUGAAUGGAUACCAGACACCCGAGUGAUGUUCGGAGCAGAGUGAUGUUCUAAUAAGUCCCUUGGCAGCCGGAAGCAGCCG [Same State Theophylline B GF 3]”, the “apparent KD of K4 kissing-loop reporter” value came out at 223 nM (input ligand: FMN 200 uM); 296 nM (input ligand: arginine 13.2 mM); 340 nM (input ligand: none); 392 nM under setting [1]; 242 nM under setting [2].

Turning to “GUCUCGAGUGAUGUUCGGGUCGUUUGGGAAGGAGCGCCCGGAAGGGCAGGUAGGUCGCCCGGACCGCGCGGGCAACCGCGCGGCC [#2 Same State - Arginine A Attempt #12 (HarryS)]”, the “apparent KD of K4 kissing-loop reporter” value was 228 nM (input ligand: FMN 200 uM); 162 nM (input ligand: arginine 13.2 mM); 217 nM (input ligand: none); 212 nM under setting [1]; 192 nM under setting [2].

For the sequence “GUGAGUGACGGAGGAUAUGCGAUAGAUGUAGGAAAAUUAGUGAUGUUAGUUAUGGUAGAGAUAGAAGUAGAAGGUUGGUGUGUGU [RHig 3/7]”, the “apparent KD of K4 kissing-loop reporter” value is, setting by setting: (input ligand: FMN 200 uM) 551 nM; (input ligand: arginine 13.2 mM) 394 nM; (input ligand: none) 561 nM; under setting [1], 585 nM; under setting [2], 395 nM.

As for “GUGCAGUGAUGUUGCACGAGGAAAGACGAUACCAGCCGUAAAUAAGGCCCUUGGCAGCGUAGGCUAGCAUAAAGCAUGCUAGUCC [Edeson]”, the “apparent KD of K4 kissing-loop reporter” value by setting is: (input ligand: FMN 200 uM) 131 nM; (input ligand: arginine 13.2 mM) 98.8 nM; (input ligand: none) 111 nM; under setting [1], 98.4 nM; under setting [2], 78 nM.

Regarding “GUGCAGUGAUGUUGCACGAGGAAAGACGAUACCAGCCGUAAAUAAGGCCCUUGGCAGCGUGGGCUAGCAUAAAGCAUGCUAGUCU [Edbemavela]”, the “apparent KD of K4 kissing-loop reporter” value came out at 126 nM (input ligand: FMN 200 uM); 97.7 nM (input ligand: arginine 13.2 mM); 113 nM (input ligand: none); 111 nM under setting [1]; 99.6 nM under setting [2].

(Values after the supplement of paper PMC9170038.)
